Values of other authors in PMC10339233.

Target: thrombomodulin EGF-like domains 4-6 (Homo sapiens) (UniProt P07204)
Assay: SPR

Kd: 4 nM
Substance: thrombin (from UniProt P00734)
